Assay results taken from patent US20260055186A1.

Molecular target: human CD8 on human T cells (human) (UniProt P01732)
Test: cell-based or functional assay

Chain of human CD8 on human T cells (human) (P01732 22-235): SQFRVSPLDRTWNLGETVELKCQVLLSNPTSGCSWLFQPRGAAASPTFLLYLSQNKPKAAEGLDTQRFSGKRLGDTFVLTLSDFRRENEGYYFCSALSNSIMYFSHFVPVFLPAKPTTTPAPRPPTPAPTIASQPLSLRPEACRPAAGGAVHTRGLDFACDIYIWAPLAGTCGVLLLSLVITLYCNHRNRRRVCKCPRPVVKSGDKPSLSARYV

| Substance | tumor cell survival, SK-MEL-5 with MART-1 T cells [fold] |
| --- | --- |
| 51.1 (antibody) | 2 |
| SK1 (antibody) | 2 |
